Common to all, as to test: cleavage_in_vitro
For series [1], the system named is T1, OMNI-92 (metagenomic, unknown).
T1 sequence: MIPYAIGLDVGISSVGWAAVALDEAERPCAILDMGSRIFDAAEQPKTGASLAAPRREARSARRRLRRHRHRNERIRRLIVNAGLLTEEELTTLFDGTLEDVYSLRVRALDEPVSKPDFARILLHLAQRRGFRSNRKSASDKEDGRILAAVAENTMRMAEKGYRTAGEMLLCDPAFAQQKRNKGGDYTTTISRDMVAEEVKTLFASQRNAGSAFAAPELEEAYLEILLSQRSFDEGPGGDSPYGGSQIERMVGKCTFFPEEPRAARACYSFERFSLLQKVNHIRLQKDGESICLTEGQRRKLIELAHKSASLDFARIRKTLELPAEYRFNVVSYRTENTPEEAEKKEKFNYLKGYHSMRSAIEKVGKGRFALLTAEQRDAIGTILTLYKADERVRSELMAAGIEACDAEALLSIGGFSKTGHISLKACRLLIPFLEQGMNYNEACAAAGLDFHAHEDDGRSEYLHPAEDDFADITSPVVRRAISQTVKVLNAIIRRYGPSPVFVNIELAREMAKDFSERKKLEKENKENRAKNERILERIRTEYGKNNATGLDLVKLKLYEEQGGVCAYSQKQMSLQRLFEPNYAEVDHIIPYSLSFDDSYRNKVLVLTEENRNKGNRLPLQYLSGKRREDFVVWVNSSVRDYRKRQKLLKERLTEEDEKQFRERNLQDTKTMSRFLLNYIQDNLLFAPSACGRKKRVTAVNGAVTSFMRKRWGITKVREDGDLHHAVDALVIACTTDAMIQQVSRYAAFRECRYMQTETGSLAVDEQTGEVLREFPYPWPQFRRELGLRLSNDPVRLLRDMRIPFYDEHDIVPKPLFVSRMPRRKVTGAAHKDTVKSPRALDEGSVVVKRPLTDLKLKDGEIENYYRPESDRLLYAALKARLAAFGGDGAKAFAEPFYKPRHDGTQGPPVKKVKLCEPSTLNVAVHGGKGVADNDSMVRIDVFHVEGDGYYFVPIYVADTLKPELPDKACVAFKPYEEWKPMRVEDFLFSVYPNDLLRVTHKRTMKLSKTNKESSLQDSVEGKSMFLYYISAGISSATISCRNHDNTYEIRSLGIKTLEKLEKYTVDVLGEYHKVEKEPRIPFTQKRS
Conditions: TXTL; PAM NNNNRYGA

Series [2] deals with T2, OMNI-136 (metagenomic, unknown).
T2 sequence: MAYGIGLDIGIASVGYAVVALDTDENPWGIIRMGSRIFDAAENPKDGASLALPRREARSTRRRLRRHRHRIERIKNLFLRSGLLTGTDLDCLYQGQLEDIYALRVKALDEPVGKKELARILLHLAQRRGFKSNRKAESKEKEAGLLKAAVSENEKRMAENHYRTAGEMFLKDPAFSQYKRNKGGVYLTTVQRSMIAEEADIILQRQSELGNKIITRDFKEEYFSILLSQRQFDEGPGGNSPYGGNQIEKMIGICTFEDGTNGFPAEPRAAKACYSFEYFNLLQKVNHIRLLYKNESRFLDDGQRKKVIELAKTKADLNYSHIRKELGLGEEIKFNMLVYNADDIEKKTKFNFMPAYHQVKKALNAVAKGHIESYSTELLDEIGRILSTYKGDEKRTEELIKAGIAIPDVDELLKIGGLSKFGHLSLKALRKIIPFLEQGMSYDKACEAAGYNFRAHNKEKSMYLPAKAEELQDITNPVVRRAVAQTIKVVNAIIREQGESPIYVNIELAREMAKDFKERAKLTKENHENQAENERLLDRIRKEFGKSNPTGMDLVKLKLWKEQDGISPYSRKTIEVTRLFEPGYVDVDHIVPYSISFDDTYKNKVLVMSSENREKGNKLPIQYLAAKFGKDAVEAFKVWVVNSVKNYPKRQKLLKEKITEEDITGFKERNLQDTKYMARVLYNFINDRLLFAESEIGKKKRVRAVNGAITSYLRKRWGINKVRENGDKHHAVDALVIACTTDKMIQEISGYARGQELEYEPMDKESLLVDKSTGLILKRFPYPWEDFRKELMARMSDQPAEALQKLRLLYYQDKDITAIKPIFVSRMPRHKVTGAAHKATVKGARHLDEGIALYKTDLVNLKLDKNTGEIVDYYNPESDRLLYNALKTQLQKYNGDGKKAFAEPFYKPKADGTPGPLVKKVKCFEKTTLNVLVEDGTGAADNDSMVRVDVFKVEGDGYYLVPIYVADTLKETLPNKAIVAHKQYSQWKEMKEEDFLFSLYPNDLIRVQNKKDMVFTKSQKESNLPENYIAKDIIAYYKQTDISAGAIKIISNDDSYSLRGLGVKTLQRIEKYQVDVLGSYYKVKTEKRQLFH
The note with it: TXTL; PAM NNDRCNAA

Series [3] has as its system T3, OMNI-135 (metagenomic, unknown).
T3 sequence: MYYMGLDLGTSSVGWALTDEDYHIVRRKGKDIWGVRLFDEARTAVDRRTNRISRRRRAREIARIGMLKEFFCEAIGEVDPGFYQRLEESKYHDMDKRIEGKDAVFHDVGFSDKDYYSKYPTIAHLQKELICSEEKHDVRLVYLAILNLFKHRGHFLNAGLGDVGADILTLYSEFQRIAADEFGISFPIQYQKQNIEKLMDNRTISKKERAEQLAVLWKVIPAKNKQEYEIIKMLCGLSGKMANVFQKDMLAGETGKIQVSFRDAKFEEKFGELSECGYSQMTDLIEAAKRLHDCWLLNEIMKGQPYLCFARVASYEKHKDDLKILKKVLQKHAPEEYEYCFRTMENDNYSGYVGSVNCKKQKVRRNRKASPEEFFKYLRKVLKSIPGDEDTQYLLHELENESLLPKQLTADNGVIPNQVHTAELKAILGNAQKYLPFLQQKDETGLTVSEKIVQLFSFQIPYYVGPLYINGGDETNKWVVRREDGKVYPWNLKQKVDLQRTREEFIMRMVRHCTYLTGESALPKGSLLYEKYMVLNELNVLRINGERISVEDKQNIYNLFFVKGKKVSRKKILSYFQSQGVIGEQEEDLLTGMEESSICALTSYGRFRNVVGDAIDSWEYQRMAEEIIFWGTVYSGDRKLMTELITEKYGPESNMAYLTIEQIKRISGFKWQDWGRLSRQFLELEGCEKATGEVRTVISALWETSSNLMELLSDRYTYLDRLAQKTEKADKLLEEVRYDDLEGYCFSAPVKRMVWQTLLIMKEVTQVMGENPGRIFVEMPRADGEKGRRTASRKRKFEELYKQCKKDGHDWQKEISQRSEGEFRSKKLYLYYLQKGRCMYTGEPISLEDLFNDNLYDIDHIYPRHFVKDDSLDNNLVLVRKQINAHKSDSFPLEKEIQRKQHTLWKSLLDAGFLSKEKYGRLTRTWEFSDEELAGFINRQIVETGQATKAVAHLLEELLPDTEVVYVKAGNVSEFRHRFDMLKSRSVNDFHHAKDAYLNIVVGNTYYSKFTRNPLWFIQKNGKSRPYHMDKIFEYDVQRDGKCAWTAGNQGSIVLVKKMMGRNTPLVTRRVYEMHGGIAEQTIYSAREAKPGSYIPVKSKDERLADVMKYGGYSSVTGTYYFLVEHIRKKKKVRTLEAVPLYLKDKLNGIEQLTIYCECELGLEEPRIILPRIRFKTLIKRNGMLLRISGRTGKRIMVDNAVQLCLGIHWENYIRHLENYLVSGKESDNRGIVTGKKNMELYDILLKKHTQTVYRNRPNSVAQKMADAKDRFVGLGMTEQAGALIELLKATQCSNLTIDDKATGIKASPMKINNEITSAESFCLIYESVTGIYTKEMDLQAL
Conditions: TXTL; PAM NNWACCNN

In series [4] the test system is T4, OMNI-137 (metagenomic, unknown).
T4 sequence: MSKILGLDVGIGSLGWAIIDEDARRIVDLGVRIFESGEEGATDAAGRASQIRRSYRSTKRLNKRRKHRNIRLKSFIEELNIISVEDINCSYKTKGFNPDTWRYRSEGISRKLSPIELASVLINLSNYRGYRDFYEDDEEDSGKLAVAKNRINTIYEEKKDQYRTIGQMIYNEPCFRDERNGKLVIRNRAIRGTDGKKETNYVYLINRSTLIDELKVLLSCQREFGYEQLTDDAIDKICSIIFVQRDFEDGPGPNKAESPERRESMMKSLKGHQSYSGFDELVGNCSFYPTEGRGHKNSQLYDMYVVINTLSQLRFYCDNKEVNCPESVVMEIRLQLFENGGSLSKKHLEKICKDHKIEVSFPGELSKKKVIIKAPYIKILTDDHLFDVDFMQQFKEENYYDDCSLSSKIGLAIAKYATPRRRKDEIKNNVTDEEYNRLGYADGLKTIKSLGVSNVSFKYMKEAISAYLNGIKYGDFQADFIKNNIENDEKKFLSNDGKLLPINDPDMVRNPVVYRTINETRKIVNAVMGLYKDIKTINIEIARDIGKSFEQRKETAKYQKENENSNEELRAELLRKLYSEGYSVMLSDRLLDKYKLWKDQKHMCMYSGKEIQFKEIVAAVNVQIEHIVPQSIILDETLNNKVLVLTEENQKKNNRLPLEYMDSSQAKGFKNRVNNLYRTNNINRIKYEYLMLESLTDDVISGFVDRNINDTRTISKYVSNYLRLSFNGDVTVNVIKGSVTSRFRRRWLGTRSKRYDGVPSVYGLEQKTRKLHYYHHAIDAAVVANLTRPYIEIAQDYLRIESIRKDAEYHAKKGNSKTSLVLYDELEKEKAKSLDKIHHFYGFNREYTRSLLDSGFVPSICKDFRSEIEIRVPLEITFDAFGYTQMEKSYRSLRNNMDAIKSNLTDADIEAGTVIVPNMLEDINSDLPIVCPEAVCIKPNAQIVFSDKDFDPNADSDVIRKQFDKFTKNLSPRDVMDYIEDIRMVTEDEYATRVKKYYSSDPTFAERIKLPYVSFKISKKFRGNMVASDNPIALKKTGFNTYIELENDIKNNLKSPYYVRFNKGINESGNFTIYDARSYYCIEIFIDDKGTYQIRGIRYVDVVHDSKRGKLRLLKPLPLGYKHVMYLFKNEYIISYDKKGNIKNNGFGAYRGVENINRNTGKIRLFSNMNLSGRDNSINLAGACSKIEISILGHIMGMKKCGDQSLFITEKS
Conditions: TXTL; PAM NNRCRGNN

For the sequence “GGAAGAGCAGAGCCUUGGUCUCGUUGUAGUUCCCUGAUCGUGAAAACGAUCAGGUUGCUACAAUAAGGUAGUACACCGAAGAGCUCUAACGCCCCGUUUUGCGGGGCGUUAUCUCUUUUUUU / GGAAGAGCAGAGCCTTGGTCTCNNNNNNNN / NNNNNNNNGAGACCAAGGCTCTGCTCTTCC [T2 sgRNA 3 V1 ; T2 protospacer + 8N PAM library (pbPOS T2)]”, in series [1], the activity (1-depletion score) was 0.97.
In the case of “GGAAGAGCAGAGCCUUGGUCUCGUUGUAGUUCCCUGUUAAUGAAAAUUUUCGGGUUACUAUGAUAAGGUAGAACACCGAAAAGCUCUAACGCCUUGCCAUUUGGUGAGGCGUUAUCUUUUUU / GGAAGAGCAGAGCCTTGGTCTCNNNNNNNN / NNNNNNNNGAGACCAAGGCTCTGCTCTTCC [T2 sgRNA 36 V1 ; T2 protospacer + 8N PAM library (pbPOS T2)]”, the activity (1-depletion score) in series [2] is 0.97.
With “GGAAGAGCAGAGCCUUGGUCUCGUUUGAGAACCUUGUAAGAAAUUACAAGGUGAGUGCAAAUAAGGAUUUUUCCGAAAUCACUCCUCAUGGAUGUCCGCAUUGUGCGGUGAAAAAGACUCUGUUUAGAGUCUUUUUU / GGAAGAGCAGAGCCTTGGTCTCNNNNNNNN / NNNNNNNNGAGACCAAGGCTCTGCTCTTCC [T2 sgRNA 35 V1 ; T2 protospacer + 8N PAM library (pbPOS T2)]”, the activity (1-depletion score) in series [3] is 0.95.
“GGAAGAGCAGAGCCUUGGUCUCGUUUUAGUUCUCGGACGAAAGUCCGAGAAUCUAAGAUAAAGCUAUAUGCUGUGGGGUUGCGUAUCCCCUUAUCGAACGUACUAAGAUGAGUUUCGGCUCAUCUUUUUU / GGAAGAGCAGAGCCTTGGTCTCNNNNNNNN / NNNNNNNNGAGACCAAGGCTCTGCTCTTCC [T2 sgRNA 37 V1 ; T2 protospacer + 8N PAM library (pbPOS T2)]” registered an activity (1-depletion score) in series [4] of 0.97.

These data come from patent US20240425885.
